Test results as given in the supplement of paper PMC10567573.

B1: STK38L (parent)
chain: NWKETLVFPPEVPISEKAKDLILR
B2: CD69 (parent)
chain: FVAENSSLHPESGQENDATSPHFS

Variants of: B1
Test: protein stability index of a GFP-peptide fusion (GPS, HEK-293T) (PSI 1-6); higher = more stable
Conditions: c terminus: a fixed tail appended
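Further: lentivirally expressed fusions sorted by FACS into six bins by GFP to DsRed ratio, PSI derived from sequencing read proportions per bin multiplied by bin number.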

Protein stability index, by site and new letter:
V12: T 2.97 | K 3.76 | F 3.05 | M 3.15 | L 2.67 | C 2.73 | Y 2.62 | I 3.52 | Q 2.89 | E 3.72 | D 3.55 | R 3.92 | W 3.95 | G 2.92 | S 3.86 | P 3.48 | N 3.26 | H 2.72
E16: Y 2.5 | K 2.17 | V 3.14 | A 2.66 | G 2.31 | H 2.34 | Q 2.43 | P 3.02 | F 2.04 | T 2.6 | N 3.3 | C 2.7 | I 2.14 | R 2.48 | M 1.66 | D 3.64 | S 2.33
K17: L 2.15 | H 2.98 | W 2.41 | M 2.85 | A 3.17 | F 2.93 | S 4.07 | G 2.8 | Q 3.05 | D 3.89 | P 3.41 | C 2.81 | N 3.37 | R 2.8 | Y 3.14 | I 1.92 | T 3.7 | E 3.32 | V 2.21
L23: E 4.15 | D 4.92 | C 3.36 | V 3.27 | H 3.78 | S 3.94 | P 3.9 | N 4.09 | K 4.24 | A 3.75 | Q 4.22 | T 3.77 | R 4.19 | Y 2.99 | I 3.24 | W 2.12 | F 2.9 | G 4.47 | M 2.6
E11: M 2.39 | H 2.81 | T 2.68 | I 2.52 | L 3.58 | N 2.69 | S 2.3 | R 2.87 | V 3.03 | Y 2.21 | Q 3.36 | G 2.65 | W 2.63
L21: S 3.72 | W 2.58 | R 3.62 | G 3.81 | H 3.48 | A 3.35 | F 2.63 | M 3.42 | T 4.44 | E 4.66 | D 3.72 | Q 3.41 | V 3.53 | C 3.62 | N 3.56 | I 3.27 | Y 2.71 | P 3.69
S15: V 2.31 | G 2.92 | N 2.62 | M 3.37 | A 2.84 | F 2.44 | C 3.67 | P 2.68 | D 4.1 | Q 3.87 | I 1.89 | H 2.68 | Y 2.81 | W 2 | T 3.27 | K 3.09 | L 1.84 | E 4.21 | R 2.79
P13: D 3.4 | E 3.1 | S 3.92 | R 2.57 | F 2.35 | L 2.42 | Y 1.97 | N 3.27 | H 2.9 | G 3.1 | K 2.46 | T 2.44 | C 2.37 | V 3.67 | M 2.36
A18: V 2.72 | Y 2.45 | Q 3.57 | W 2.65 | R 3.69 | D 3.76 | G 3.21 | F 3.06 | P 3.1 | I 1.89 | S 3.32 | L 1.8 | H 2.54 | M 2.39 | N 3.38 | E 4.56 | K 3.4 | C 2.72 | T 3.41
D20: M 1.94 | S 2.45 | A 2.92 | I 1.52 | W 1.92 | K 2.57 | V 2.23 | R 2.94 | N 2.63 | G 2.31 | F 2.52 | H 1.9 | T 2.92 | C 2.06 | Q 3 | Y 1.8 | P 2.65
I14: T 4.42 | C 3.19 | L 2.88 | Y 2.1 | K 4.07 | M 3.77 | D 4.44 | N 3.38 | H 2.84 | E 3.53 | Q 3.23 | R 3.44 | A 3.44 | F 2.32 | W 2.05
K19: G 2.96 | T 3.41 | W 2.26 | N 3.07 | D 3.38 | M 2.19 | H 2.78 | S 3.53 | L 1.49 | I 2.01 | A 2.69 | P 3.17 | F 1.95 | Y 2.29 | C 2.87 | Q 2.86 | E 3.77 | R 2.96
R24: K 3.6 | H 3.16 | C 2.16 | P 3.43 | M 2.64 | S 3.31 | A 3.09 | T 3.59 | F 2.13 | Q 2.83 | L 2.03 | I 1.88 | W 2.11 | E 3.57 | N 3.96 | Y 1.63 | V 1.91 | D 4.32 | G 3.9
I22: S 3.89 | Q 3.88 | E 4.54 | R 4.04 | M 4.15 | F 2.79 | A 4.17 | T 4.22 | Y 3.51 | W 3.42 | N 3.62 | H 3.68 | D 4.43 | K 3.66 | P 4.36 | V 3.06 | L 3.21 | C 3.07 | G 3.23

Variants of: B2
Test: as above
Conditions: c terminus: a fixed tail appended

Protein stability index of substitutions, site by site:
E4: M 2.1 | R 2.17 | Q 3.31 | H 2.5 | T 2.37
D17: E 2.82 | C 2.31 | H 2.97 | R 2.24 | P 2.76
E11: I 2.39 | K 2.35 | F 1.82 | P 2.55 | D 3.22
G13: L 2.49 | R 2.49 | Y 3.06
E15: Y 2.08 | S 2.11 | R 2.19 | H 2.76
S24: D 3.9 | F 2.27 | K 2.91 | Q 2.78 | E 3.75
N5: T 2.77 | E 3.7 | R 2.16 | M 2.45 | I 2.16 | W 1.99
L8: H 3.04 | S 3.75 | Q 3.62 | Y 2.28
S20: H 2.5 | G 3.17
S6: A 2.96 | M 2.55
N16: P 2.6 | H 3 | V 3.13
T19: P 2.84 | E 4.03
P21: C 2.64 | W 2.9 | K 3.25 | L 2.33 | M 2.56 | T 2.86
Q14: T 2.99 | N 2.87 | V 3.2 | S 2.64 | M 3.28
F23: M 3.56 | W 2.02 | H 3.56
F1: D 5.78 | L 5.13 | H 4.98
P10: W 2.43 | M 2.46
S12: A 2.99 | D 3.25 | V 3.42 | M 2.87
H22: C 2.65 | V 3.54 | T 3.11 | Q 3.76 | K 3.24
H9: C 3.15 | W 1.61 | T 3.7 | Y 2.88 | A 3.38 | D 3.8 | I 2.9
S7: K 2.51 | Q 3.37 | A 3.13 | Y 1.93
V2: F 5.13 | Q 4.86 | N 5.25 | S 5.39
